Experiments:
purified protein [1] = substrate: OC[C@@H](O)[C@H](O)[C@@H](O)CO; test: purified protein; details: 1.5 mM NAD+, 50 mM Tris-HCl pH 8.0, 30 °C
[2] = biological target: the molecule itself; test: SEC; gel filtration of the sample purified by Ni-NTA (HiLoad 16/600 Superdex 200 pg, 20 mM Tris-HCl pH 8.0, 150 mM NaCl)
purified protein [3] = substrate: OC[C@@H](O)[C@H](O)[C@@H](O)CO; test: purified protein; format: biochemical, Scheffersomyces stipitis; details: […] NAD+, 50 mM Tris-HCl pH 8.0, 30 °C

| Protein | Km (purified protein [1]; 1-10 mM xylitol) | kcat (purified protein [1]; 1-10 mM xylitol) | kcat/Km (purified protein [1]; 1-10 mM xylitol) | stoichiometry N [2] | other results |
| --- | --- | --- | --- | --- | --- |
| ScXDH (Saccharomyces cerevisiae S288C) (protein) MTDLTTQEAIVLERPGKITLTNVSIPKISDPNEVIIQIKATGICGSDIHYYTHGRIANYVVESPMVLGHESSGIVALIGENVKTLKVGDRVALEPGIPDRFSPEMKEGRYNLDPNLKFAATPPFDGTLTKYYKTMKDFVYKLPDDVSFEEGALIEPLSVAIHANKLAKIKFGARCVVFGAGPIGLLAGKVASVFGAADVVFVDLLENKLETARQFGATHIVNSGDLPHGVTVDSVIKKAIGKKGADVVFECSGAEPCVRAGIEVCKAGGTIVQVGMGQEEIQFPISIIPTKELTFQGCFRYCQGDYSDSIELVSSRKLSLKPFITHRYSFKDAVEAFEETSHHPLNNIKTIIEGPE | – | – | – | – | Km (purified protein [1]; 0.1-1 mM xylitol): 1.82 ± 0.42 mM; kcat (purified protein [1]; 0.1-1 mM xylitol): 0.0182 s⁻¹; kcat/Km (purified protein [1]; 0.1-1 mM xylitol): 10.1 M⁻¹ s⁻¹ |
| ScXDH (Saccharomyces cerevisiae S288C; D113C/D99C/M105C/S102C) (protein) MTDLTTQEAIVLERPGKITLTNVSIPKISDPNEVIIQIKATGICGSDIHYYTHGRIANYVVESPMVLGHESSGIVALIGENVKTLKVGDRVALEPGIPCRFCPECKEGRYNLCPNLKFAATPPFDGTLTKYYKTMKDFVYKLPDDVSFEEGALIEPLSVAIHANKLAKIKFGARCVVFGAGPIGLLAGKVASVFGAADVVFVDLLENKLETARQFGATHIVNSGDLPHGVTVDSVIKKAIGKKGADVVFECSGAEPCVRAGIEVCKAGGTIVQVGMGQEEIQFPISIIPTKELTFQGCFRYCQGDYSDSIELVSSRKLSLKPFITHRYSFKDAVEAFEETSHHPLNNIKTIIEGPE | – | – | – | – | Km (purified protein [1]; 0.1-1 mM xylitol): 5.44 ± 0.78 mM; kcat (purified protein [1]; 0.1-1 mM xylitol): 0.402 s⁻¹; kcat/Km (purified protein [1]; 0.1-1 mM xylitol): 74 M⁻¹ s⁻¹ |
| SpXDH C97S mutant (enzyme, Schizosaccharomyces pombe, UniProt P36624 1-360, looked up, SPBC1773.05c protein of S. pombe (SpXDH), cloned into pQE-81L; source: E. coli DH5α, purified (Ni-NTA)) MAPAEKAFVLRKKMDTAIEDRPGQTLTDDHQVKVAIKATGICGSDVHYWKEGGIGDFILKKPMILGHESAGVVVEVGKGVSSLKPGDPVAVEPGCVSRLCDYCRSGRYNLCPHMEFAATPPYDGTLRTYYITTEDFCTKLPKQISVEEGALFEPMSVAVHAMTRGNLKCGSRVLVMGCGTVGLLMMAVAKAYGAIDIVAVDASPSRVEFAQKYVGAKPFTPIAAKENESLPDYAQRYKQAIIEKYGEFDFAVDATGVGICIHTAVLALKRGGTFVQAGNGKPVIDFPINHIINYEINVLGSFRYAHGCYKQSLFLVSNGLVDVKPLITHRFAFKDALKAYETVASGEEGVLKVIIGGPDA | 12.3 ± 2.3 mM | 6.03 s⁻¹ | 493 M⁻¹ s⁻¹ | 4 | – |
| SpXDH C103D mutant (enzyme, Schizosaccharomyces pombe, UniProt P36624 1-360, looked up, SPBC1773.05c protein of S. pombe (SpXDH), cloned into pQE-81L; source: E. coli DH5α, purified (Ni-NTA)) MAPAEKAFVLRKKMDTAIEDRPGQTLTDDHQVKVAIKATGICGSDVHYWKEGGIGDFILKKPMILGHESAGVVVEVGKGVSSLKPGDPVAVEPGCVCRLCDYDRSGRYNLCPHMEFAATPPYDGTLRTYYITTEDFCTKLPKQISVEEGALFEPMSVAVHAMTRGNLKCGSRVLVMGCGTVGLLMMAVAKAYGAIDIVAVDASPSRVEFAQKYVGAKPFTPIAAKENESLPDYAQRYKQAIIEKYGEFDFAVDATGVGICIHTAVLALKRGGTFVQAGNGKPVIDFPINHIINYEINVLGSFRYAHGCYKQSLFLVSNGLVDVKPLITHRFAFKDALKAYETVASGEEGVLKVIIGGPDA | 10.5 ± 0.7 mM | 7.82 s⁻¹ | 743 M⁻¹ s⁻¹ | 4 | – |
| SpXDH (Schizosaccharomyces pombe 972h-; C111D) (protein) MAPAEKAFVLRKKMDTAIEDRPGQTLTDDHQVKVAIKATGICGSDVHYWKEGGIGDFILKKPMILGHESAGVVVEVGKGVSSLKPGDPVAVEPGCVCRLCDYCRSGRYNLDPHMEFAATPPYDGTLRTYYITTEDFCTKLPKQISVEEGALFEPMSVAVHAMTRGNLKCGSRVLVMGCGTVGLLMMAVAKAYGAIDIVAVDASPSRVEFAQKYVGAKPFTPIAAKENESLPDYAQRYKQAIIEKYGEFDFAVDATGVGICIHTAVLALKRGGTFVQAGNGKPVIDFPINHIINYEINVLGSFRYAHGCYKQSLFLVSNGLVDVKPLITHRFAFKDALKAYETVASGEEGVLKVIIGGPDA | 9.76 ± 0.15 mM | 3.6 s⁻¹ | 368 M⁻¹ s⁻¹ | – | – |
| SpXDH (Schizosaccharomyces pombe 972h-; C100D) (protein) MAPAEKAFVLRKKMDTAIEDRPGQTLTDDHQVKVAIKATGICGSDVHYWKEGGIGDFILKKPMILGHESAGVVVEVGKGVSSLKPGDPVAVEPGCVCRLDDYCRSGRYNLCPHMEFAATPPYDGTLRTYYITTEDFCTKLPKQISVEEGALFEPMSVAVHAMTRGNLKCGSRVLVMGCGTVGLLMMAVAKAYGAIDIVAVDASPSRVEFAQKYVGAKPFTPIAAKENESLPDYAQRYKQAIIEKYGEFDFAVDATGVGICIHTAVLALKRGGTFVQAGNGKPVIDFPINHIINYEINVLGSFRYAHGCYKQSLFLVSNGLVDVKPLITHRFAFKDALKAYETVASGEEGVLKVIIGGPDA | 8.26 ± 0.89 mM | 2.17 s⁻¹ | 263 M⁻¹ s⁻¹ | – | – |
| SpXDH C111S mutant (enzyme, Schizosaccharomyces pombe, UniProt P36624 1-360, looked up, SPBC1773.05c protein of S. pombe (SpXDH), cloned into pQE-81L; source: E. coli DH5α, purified (Ni-NTA)) MAPAEKAFVLRKKMDTAIEDRPGQTLTDDHQVKVAIKATGICGSDVHYWKEGGIGDFILKKPMILGHESAGVVVEVGKGVSSLKPGDPVAVEPGCVCRLCDYCRSGRYNLSPHMEFAATPPYDGTLRTYYITTEDFCTKLPKQISVEEGALFEPMSVAVHAMTRGNLKCGSRVLVMGCGTVGLLMMAVAKAYGAIDIVAVDASPSRVEFAQKYVGAKPFTPIAAKENESLPDYAQRYKQAIIEKYGEFDFAVDATGVGICIHTAVLALKRGGTFVQAGNGKPVIDFPINHIINYEINVLGSFRYAHGCYKQSLFLVSNGLVDVKPLITHRFAFKDALKAYETVASGEEGVLKVIIGGPDA | – | – | – | 4 | – |
| SpXDH C103S mutant (enzyme, Schizosaccharomyces pombe, UniProt P36624 1-360, looked up, SPBC1773.05c protein of S. pombe (SpXDH), cloned into pQE-81L; source: E. coli DH5α, purified (Ni-NTA)) MAPAEKAFVLRKKMDTAIEDRPGQTLTDDHQVKVAIKATGICGSDVHYWKEGGIGDFILKKPMILGHESAGVVVEVGKGVSSLKPGDPVAVEPGCVCRLCDYSRSGRYNLCPHMEFAATPPYDGTLRTYYITTEDFCTKLPKQISVEEGALFEPMSVAVHAMTRGNLKCGSRVLVMGCGTVGLLMMAVAKAYGAIDIVAVDASPSRVEFAQKYVGAKPFTPIAAKENESLPDYAQRYKQAIIEKYGEFDFAVDATGVGICIHTAVLALKRGGTFVQAGNGKPVIDFPINHIINYEINVLGSFRYAHGCYKQSLFLVSNGLVDVKPLITHRFAFKDALKAYETVASGEEGVLKVIIGGPDA | – | – | – | 4 | Km (purified protein [1]; xylitol range not marked): 9.01 ± 0.74 mM; kcat (purified protein [1]; xylitol range not marked): 2.08 s⁻¹; kcat/Km (purified protein [1]; xylitol range not marked): 233 M⁻¹ s⁻¹ |
| SpXDH C97D mutant (enzyme, Schizosaccharomyces pombe, UniProt P36624 1-360, looked up, SPBC1773.05c protein of S. pombe (SpXDH), cloned into pQE-81L; source: E. coli DH5α, purified (Ni-NTA)) MAPAEKAFVLRKKMDTAIEDRPGQTLTDDHQVKVAIKATGICGSDVHYWKEGGIGDFILKKPMILGHESAGVVVEVGKGVSSLKPGDPVAVEPGCVDRLCDYCRSGRYNLCPHMEFAATPPYDGTLRTYYITTEDFCTKLPKQISVEEGALFEPMSVAVHAMTRGNLKCGSRVLVMGCGTVGLLMMAVAKAYGAIDIVAVDASPSRVEFAQKYVGAKPFTPIAAKENESLPDYAQRYKQAIIEKYGEFDFAVDATGVGICIHTAVLALKRGGTFVQAGNGKPVIDFPINHIINYEINVLGSFRYAHGCYKQSLFLVSNGLVDVKPLITHRFAFKDALKAYETVASGEEGVLKVIIGGPDA | 10.4 ± 0.1 mM | 6.78 s⁻¹ | 650 M⁻¹ s⁻¹ | 4 | – |
| SpXDH C100S mutant (enzyme, Schizosaccharomyces pombe, UniProt P36624 1-360, looked up, SPBC1773.05c protein of S. pombe (SpXDH), cloned into pQE-81L; source: E. coli DH5α, purified (Ni-NTA)) MAPAEKAFVLRKKMDTAIEDRPGQTLTDDHQVKVAIKATGICGSDVHYWKEGGIGDFILKKPMILGHESAGVVVEVGKGVSSLKPGDPVAVEPGCVCRLSDYCRSGRYNLCPHMEFAATPPYDGTLRTYYITTEDFCTKLPKQISVEEGALFEPMSVAVHAMTRGNLKCGSRVLVMGCGTVGLLMMAVAKAYGAIDIVAVDASPSRVEFAQKYVGAKPFTPIAAKENESLPDYAQRYKQAIIEKYGEFDFAVDATGVGICIHTAVLALKRGGTFVQAGNGKPVIDFPINHIINYEINVLGSFRYAHGCYKQSLFLVSNGLVDVKPLITHRFAFKDALKAYETVASGEEGVLKVIIGGPDA | 16.2 ± 5.0 mM | 0.202 s⁻¹ | 12.4 M⁻¹ s⁻¹ | 4 | – |
| PsXDH (Scheffersomyces stipitis CBS 6054) (protein, full length, N-terminal His6 tag (pQE-81L), E. coli DH5alpha; homotetramer; 7Y9P is the apo C4 mutant) MTANPSLVLNKIDDISFETYDAPEISEPTDVLVQVKKTGICGSDIHFYAHGRIGNFVLTKPMVLGHESAGTVVQVGKGVTSLKVGDNVAIEPGIPSRFSDEYKSGHYNLCPHMAFAATPNSKEGEPNPPGTLCKYFKSPEDFLVKLPDHVSLELGALVEPLSVGVHASKLGSVAFGDYVAVFGAGPVGLLAAAVAKTFGAKGVIVVDIFDNKLKMAKDIGAATHTFNSKTGGSEELIKAFGGNVPNVVLECTGAEPCIKLGVDAIAPGGRFVQVGNAAGPVSFPITVFAMKELTLFGSFRYGFNDYKTAVGIFDTNYQNGRENAPIDFEQLITHRYKFKDAIEAYDLVRAGKGAVKCLIDGPE | – | – | – | – | Km (purified protein [3]; 0.1-1 mM xylitol): 2.05 ± 0.20 mM; kcat (purified protein [3]; 0.1-1 mM xylitol): 0.63 ± 0.0583 s⁻¹; kcat/Km (purified protein [3]; 0.1-1 mM xylitol): 307 ± 3.33 M⁻¹ s⁻¹ |
| PsXDH (Scheffersomyces stipitis CBS 6054; S96D/S99C/Y102C) (protein, full length, N-terminal His6 tag (pQE-81L), E. coli DH5alpha; homotetramer; 7Y9P is the apo C4 mutant) MTANPSLVLNKIDDISFETYDAPEISEPTDVLVQVKKTGICGSDIHFYAHGRIGNFVLTKPMVLGHESAGTVVQVGKGVTSLKVGDNVAIEPGIPDRFCDECKSGHYNLCPHMAFAATPNSKEGEPNPPGTLCKYFKSPEDFLVKLPDHVSLELGALVEPLSVGVHASKLGSVAFGDYVAVFGAGPVGLLAAAVAKTFGAKGVIVVDIFDNKLKMAKDIGAATHTFNSKTGGSEELIKAFGGNVPNVVLECTGAEPCIKLGVDAIAPGGRFVQVGNAAGPVSFPITVFAMKELTLFGSFRYGFNDYKTAVGIFDTNYQNGRENAPIDFEQLITHRYKFKDAIEAYDLVRAGKGAVKCLIDGPE | – | – | – | – | Km (purified protein [3]; 1-10 mM xylitol): 11.0 ± 1.2 mM; kcat (purified protein [3]; 1-10 mM xylitol): 9.17 ± 0.633 s⁻¹; kcat/Km (purified protein [3]; 1-10 mM xylitol): 837 ± 28.3 M⁻¹ s⁻¹ |
| PsXDH (Scheffersomyces stipitis CBS 6054; S96C/S99C/Y102C) (protein, full length, N-terminal His6 tag (pQE-81L), E. coli DH5alpha; homotetramer; 7Y9P is the apo C4 mutant) MTANPSLVLNKIDDISFETYDAPEISEPTDVLVQVKKTGICGSDIHFYAHGRIGNFVLTKPMVLGHESAGTVVQVGKGVTSLKVGDNVAIEPGIPCRFCDECKSGHYNLCPHMAFAATPNSKEGEPNPPGTLCKYFKSPEDFLVKLPDHVSLELGALVEPLSVGVHASKLGSVAFGDYVAVFGAGPVGLLAAAVAKTFGAKGVIVVDIFDNKLKMAKDIGAATHTFNSKTGGSEELIKAFGGNVPNVVLECTGAEPCIKLGVDAIAPGGRFVQVGNAAGPVSFPITVFAMKELTLFGSFRYGFNDYKTAVGIFDTNYQNGRENAPIDFEQLITHRYKFKDAIEAYDLVRAGKGAVKCLIDGPE | – | – | – | – | Km (purified protein [3]; 0.1-1 mM xylitol): 4.94 ± 1.62 mM; kcat (purified protein [3]; 0.1-1 mM xylitol): 6.4 ± 1.85 s⁻¹; kcat/Km (purified protein [3]; 0.1-1 mM xylitol): 1320 ± 66.7 M⁻¹ s⁻¹ |

Source: PMC9895041, “Molecular evolutionary insight of structural zinc atom in yeast xylitol dehydrogenases and its application in bioethanol production by lignocellulosic biomass” (Scientific Reports, 2023)
